According to US20040170644A1:
No end group written: not given here.

T1: HLA-DR3 molecule (DRB1*0301) (human)
T1 chain 1: not shown
T1 chain 2: not shown

T2: HLA-DRB4*0101 molecule (human)
T2 chain 1: not shown
T2 chain 2: not shown

T3: HLA-DRB3*0101 molecule (human)
T3 chain 1: not shown
T3 chain 2: not shown

T4: HLA-DR7 molecule (DRB1*0701) (human)
T4 chain 1: not shown
T4 chain 2: not shown

T5: HLA-DR11 molecule (DRB1*1101) (human)
T5 chain 1: not shown
T5 chain 2: not shown

T6: HLA-DRB5*0101 molecule (human)
T6 chain 1: not shown
T6 chain 2: not shown

T7: HLA-DR4 molecule (DRB1*0401) (human)
T7 chain 1: not shown
T7 chain 2: not shown

T8: HLA-DR1 molecule (DRB1*0101) (human)
T8 chain 1: not shown
T8 chain 2: not shown

T9: HLA-DR15 molecule (DRB1*1501) (human)
T9 chain 1: not shown
T9 chain 2: not shown

T10: HLA-DR13 molecule (DRB1*1301) (human)
T10 chain 1: not shown
T10 chain 2: not shown

B1: E7(7-27) (peptide)
peptide: TLHEYMLDLQPETTDLYCYEQ
modifications: not checked
B2: E6 97-111 (peptide)
peptide: QQYNKPLCDLLIRCI
modifications: not checked
B3: E7(21-40) (peptide)
peptide: DLYCYEQLNDSSEEEDEIDG
modifications: not checked
B4: E7(65-87) (peptide)
peptide: LRLCVQSTHVDIRTLEDLLMGTL
modifications: not checked
B5: E7 13-27 (peptide)
peptide: LDLQPETTDLYCYEQ
modifications: not checked
B6: E6(1-22) (peptide)
peptide: MHQKRTAMFQDPQERPRKLPQL
modifications: not checked
B7: E6(14-34) (peptide)
peptide: ERPRKLPQLCTELQTTIHDII
modifications: not checked
B8: E6 42-56 (peptide)
peptide: QQLLRREVYDFAFRD
modifications: not checked
B9: E7 84-98 (peptide)
peptide: MGTLGIVCPICSQKP
modifications: not checked
B10: E7 6-20 (peptide)
peptide: PTLHEYMLDLQPETT
modifications: not checked
B11: E7(1-20) (peptide)
peptide: MHGDTPTLHEYMLDLQPETT
modifications: not checked
B12: E6(45-67) (peptide)
peptide: LRREVYDFAFRDLCIVYRDGNPY
modifications: not checked
B13: E7 65-79 (peptide)
peptide: LRLCVQSTHVDIRTL
modifications: not checked
B14: E7(60-74) (peptide)
peptide: KCDSTLRLCVQSTHV
modifications: not checked
B15: E6 24-38 (peptide)
peptide: TELQTTIHDIILECV
modifications: not checked
B16: E6 84-98 (peptide)
peptide: RHYCYSLYGTTLEQQ
modifications: not checked
B17: E6(121-140) (peptide)
peptide: EKQRHLDKKQRFHNIRGRWT
modifications: not checked
B18: E6 93-107 (peptide)
peptide: TTLEQQYNKPLCDLL
modifications: not checked
B19: E7 67-81 (peptide)
peptide: LCVQSTHVDIRTLED
modifications: not checked
B20: E7 77-91 (peptide)
peptide: RTLEDLLMGTLGIVC
modifications: not checked
B21: E6 89-103 (peptide)
peptide: SLYGTTLEQQYNKPL
modifications: not checked
B22: E6 130-144 (peptide)
peptide: QRFHNIRGRWTGRCM
modifications: not checked
B23: E6 55-69 (peptide)
peptide: RDLCIVYRDGNPYAV
modifications: not checked
B24: E6 124-138 (peptide)
peptide: HLDKKQRFHNIRGR
modifications: not checked
B25: E6 81-95 (peptide)
peptide: SEYRHYCYSLYGTTL
modifications: not checked
B26: E6(105-126) (peptide)
peptide: DLLIRCINCQKPLCPEEKQRHL
modifications: not checked
B27: E6 76-90 (peptide)
peptide: FYSKISEYRHYCYSL
modifications: not checked
B28: B1 21-36 (nonbiotinylated) (peptide)
peptide: TERVRLVTRHIYNREE
modifications: not fully specified

Target: T1, HLA-DR3 molecule (DRB1*0301) (human)
Assay: competition ELISA vs biotin-MT 2-16

| Binder | IC50 |
| --- | --- |
| B1 | 0.56 µM |
| B2 | 1.23 µM |
| B3 | 4.6 µM |
| B4 | 0.45 µM |
| B5 | 3.5 µM |
| B6 | 3.5 µM |
| B7 | 0.55 µM |

Target: T2, HLA-DRB4*0101 molecule (human)
Assay: competition ELISA vs biotin-E2/E168

| Binder | IC50 |
| --- | --- |
| B8 | 0.055 µM |
| B1 | 0.375 µM |
| B9 | 1.75 µM |
| B10 | 0.2 µM |
| B11 | 0.004 µM |

Target: T3, HLA-DRB3*0101 molecule (human)
Assay: competition ELISA vs biotin-Lol 191-210

| Binder | IC50 |
| --- | --- |
| B1 | 0.0085 µM |
| B10 | 0.09 µM |
| B11 | 0.035 µM |
| B12 | 2.5 µM |
| B4 | 0.85 µM |
| B7 | 1.45 µM |

Target: T4, HLA-DR7 molecule (DRB1*0701) (human)
Assay: competition ELISA vs biotin-YKL

| Binder | IC50 |
| --- | --- |
| B13 | 0.6 µM |
| B14 | 0.9 µM |
| B15 | 1.5 µM |
| B9 | 1.25 µM |
| B16 | 3.25 µM |
| B17 | 0.2 µM |
| B18 | 7.75 µM |
| B19 | 1.5 µM |
| B20 | 0.055 µM |
| B21 | 1.5 µM |
| B12 | 2.33 µM |
| B4 | 0.9 µM |
| B22 | 0.95 µM |
| B7 | 0.225 µM |

Target: T5, HLA-DR11 molecule (DRB1*1101) (human)
Assay: competition ELISA vs biotin-HA 306-318

| Binder | IC50 |
| --- | --- |
| B8 | 6 µM |
| B1 | 0.6 µM |
| B14 | 7 µM |
| B16 | 7 µM |
| B17 | 0.35 µM |
| B23 | 0.25 µM |
| B24 | 0.475 µM |
| B10 | 1.5 µM |
| B11 | 1.75 µM |
| B12 | 0.125 µM |
| B22 | 0.115 µM |
| B25 | 0.725 µM |
| B5 | 3.5 µM |
| B26 | 5 µM |

Target: T6, HLA-DRB5*0101 molecule (human)
Assay: competition ELISA vs biotin-HA 306-318

| Binder | IC50 |
| --- | --- |
| B14 | 0.2 µM |
| B9 | 0.09 µM |
| B16 | 0.9 µM |
| B17 | 0.085 µM |
| B18 | 0.325 µM |
| B2 | 5.5 µM |
| B20 | 0.7 µM |
| B24 | 0.075 µM |
| B21 | 0.2 µM |
| B12 | 0.065 µM |
| B22 | 0.075 µM |
| B25 | 2.5 µM |
| B27 | 1.05 µM |
| B26 | 0.03 µM |

Target: T7, HLA-DR4 molecule (DRB1*0401) (human)
Assay: competition ELISA vs biotin-HA 306-318

| Binder | IC50 |
| --- | --- |
| B1 | 0.06 µM |
| B2 | 0.325 µM |
| B19 | 7.5 µM |
| B3 | 1.75 µM |
| B21 | 5 µM |
| B10 | 0.175 µM |
| B4 | 0.65 µM |
| B5 | 4.25 µM |
| B26 | 3.75 µM |

Target: T8, HLA-DR1 molecule (DRB1*0101) (human)
Assay: competition ELISA vs biotin-HA 306-318

| Binder | IC50 |
| --- | --- |
| B13 | 0.75 µM |
| B14 | 5 µM |
| B15 | 0.425 µM |
| B17 | 0.125 µM |
| B2 | 0.575 µM |
| B23 | 1.5 µM |
| B19 | 7 µM |
| B24 | 0.01 µM |
| B21 | 0.125 µM |
| B10 | 0.75 µM |
| B11 | 2.5 µM |
| B4 | 0.65 µM |
| B22 | 0.004 µM |
| B25 | 0.01 µM |
| B5 | 4 µM |
| B27 | 0.125 µM |
| B26 | 1.75 µM |
| B7 | 3.5 µM |

Target: T9, HLA-DR15 molecule (DRB1*1501) (human)
Assay: competition ELISA vs biotin-A3 152-166

| Binder | IC50 |
| --- | --- |
| B8 | 3.25 µM |
| B1 | 1.77 µM |
| B15 | 0.95 µM |
| B9 | 0.425 µM |
| B18 | 0.018 µM |
| B2 | 4 µM |
| B23 | 0.055 µM |
| B19 | 0.95 µM |
| B3 | 5.3 µM |
| B21 | 0.053 µM |
| B10 | 0.675 µM |
| B11 | 0.125 µM |
| B12 | 0.225 µM |
| B4 | 0.47 µM |
| B26 | 4 µM |
| B7 | 0.8 µM |

Target: T10, HLA-DR13 molecule (DRB1*1301) (human)
Assay: competition ELISA vs biotin-B1 21-36

| Binder | IC50 |
| --- | --- |
| B28 | 0.33 µM |
| B8 | 0.375 µM |
| B1 | 7.5 µM |
| B17 | 1.13 µM |
| B27 | 0.225 µM |
| B26 | 5 µM |
